From US20250186614A1, “COMPACT DRUG RESPONSIVE DOMAINS FOR REGULATION OF FUNCTION/ABUNDANCE AND DELIVERY OF POLYPEPTIDE PAYLOADS” (OBSIDIAN THERAPEUTICS, INC., priority 2022, published 2025)

Columns and labels:
[1] = test system: Jurkat cells; assay: Tacrolimus dose response of FKBP13-AcGFP-mCherry constructs stably transduced into Jurkat cells, GFP MFI by flow cytometry; assay type: cell-based; conditions: tacrolimus; for EC90 / Tacrolimus FC: Table 14; for Fold Change: Jurkat cells stably transduced; for Tacrolimus FC: fold change
Procedure, shortened: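 GFP geometric MFI was read by flow cytometry in mCherry+ cells and curve-fitted against tacrolimus dose. Cells were Jurkat E6-1, lentivirus-transduced with FKBP13-AcGFP-mCherry fusion constructs until 10-25% mCherry-positive on day 5 post-transduction.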

[2] = test system: Jurkat cells; assay: Sirolimus (rapamycin) dose response of FKBP13 constructs stably transduced into Jurkat cells, flow cytometry; assay type: cell-based; conditions: for Fold Change: rapamycin (sirolimus), Jurkat cells stably transduced, Table 8; for EC90 / Rapamycin FC: rapamycin, Table 14; for Rapamycin FC: fold change; for difference between rapamycin and tacrolimus: ratio of EC50 and fold change, Table 9; for EC50 (tacrolimus)/ EC50 (rapamycin): ratio of Table 7 and Table 8 EC50 values; for EC50 (tacrolimus)/ EC50 (rapamycin) / Fold change (tacrolimus)/ Fold change (rapamycin): Jurkat cells; for Fold change (tacrolimus)/ Fold change (rapamycin): ratio of Table 7 and Table 8 fold changes
Method: Normalized EC50 values were calculated from the mCherry normalized GFP MFI values, which accounted for any differences in mCherry intensity between samples.

[3] = read-out: Tacrolimus EC90 (Norm), normalized
[4] = normalized, read-out: Rapamycin EC90 (Norm)

Row | Molecule | EC90 ([1]; read-out: Tacrolimus EC90) [nM] | EC90 ([2]; read-out: Rapamycin EC90) [nM] | EC50 (tacrolimus)/ EC50 (rapamycin) [2] | EC90 [1, 3] [nM] | Fold Change ([1]; Table 7) | Tacrolimus FC [1] | Fold Change [2] | Rapamycin FC [2] | EC90 [2, 4] [nM] | difference between rapamycin and tacrolimus [2] | Fold change (tacrolimus)/ Fold change (rapamycin) [2] | Fold Change ([1]; Table 6) | FC ([1]; FIG. 35) | Peak ([1]; FIG. 35) | FC ([1]; FIG. 36) | Peak ([1]; FIG. 36) | FC ([1]; FIG. 37) | Peak ([1]; FIG. 37) | FC ([1]; FIG. 38) | Peak ([1]; FIG. 38)
1 | FKBP-158: FKBP13 DRD Q72R, Q84E, A117W, M54A G111E; SEQ ID NO: 108 (protein, Description of sequence: FKBP13-AcGFP-mCherry Fusion; Construct Name: FKBP-158; FKBP13 DRD in Construct : FKBP13 (mutated to match FKBP12 active site Q72R Q84E A117W) (DRD M54A G111E)) HCPIKSRKGDVLHAHYTGKLEDGTEFDSSLPRNQPFVFSLGTGEVIKGWDQGLLGMCEGEKRKLVIPSELEYGERGWPPKIPGGATLVFEVELLKIER |  |  |  |  | 1.25 |  | 0.84 |  |  |  | 1.49 |  |  |  |  |  |  |  |  | 
2 | FKBP-151: FKBP13 DRD Q72R, Q84R, A117W, M54A; SEQ ID NO: 101 (protein, Description of sequence: FKBP13-AcGFP-mCherry Fusion; Construct Name: FKBP-151; FKBP13 DRD in Construct : FKBP13 (mutated to match FKBP12 active site Q72R Q84R A117W) (DRD M54A)) HCPIKSRKGDVLHAHYTGKLEDGTEFDSSLPRNQPFVFSLGTGRVIKGWDQGLLGMCEGEKRKLVIPSELGYGERGWPPKIPGGATLVFEVELLKIER |  |  | 0.91 |  | 42.03 |  | 10.15 |  |  |  | 4.14 |  |  |  |  |  |  |  |  | 
3 | FKBP-117: FKBP13 DRD Q72R, Q84E, A117W, V85R; SEQ ID NO: 67 (protein, Description of sequence: FKBP13-AcGFP-mCherry Fusion; Construct Name: FKBP-117; FKBP13 DRD in Construct : FKBP13 (mutated to match FKBP12 active site Q72R Q84E A117W) (DRD V85R)) HCPIKSRKGDVLHMHYTGKLEDGTEFDSSLPRNQPFVFSLGTGERIKGWDQGLLGMCEGEKRKLVIPSELGYGERGWPPKIPGGATLVFEVELLKIER | 25 | 170 | 0.20 | 27.2 | 18.6 | 21.2 | 6.9 | 7.6 | 171 |  | 2.70 | 15.75 | 24.07 | 5193 | 24.07 | 5193 | 24.07 | 5193 | 24.07 | 5193

Now from value to molecule, other results behind:

Row | EC90 ([1]; read-out: Tacrolimus EC90) [nM] | EC90 ([2]; read-out: Rapamycin EC90) [nM] | EC50 (tacrolimus)/ EC50 (rapamycin) [2] | Molecule | EC90 [1, 3] [nM] | Fold Change ([1]; Table 7) | Tacrolimus FC [1] | Fold Change [2] | Rapamycin FC [2] | EC90 [2, 4] [nM] | difference between rapamycin and tacrolimus [2] | Fold change (tacrolimus)/ Fold change (rapamycin) [2] | Fold Change ([1]; Table 6) | FC ([1]; FIG. 35) | Peak ([1]; FIG. 35) | FC ([1]; FIG. 36) | Peak ([1]; FIG. 36) | FC ([1]; FIG. 37) | Peak ([1]; FIG. 37) | FC ([1]; FIG. 38) | Peak ([1]; FIG. 38)
4 | 808 | 1140 | 0.72 | FKBP-155: FKBP13 DRD Q72R, S79W, Q84R, A117W, M54A; SEQ ID NO: 105 (protein, Description of sequence: FKBP13-AcGFP-mCherry Fusion; Construct Name: FKBP-155; FKBP13 DRD in Construct : FKBP13 (mutated to match FKBP12 active site Q72R S79W Q84R A117W) (DRD M54A)) HCPIKSRKGDVLHAHYTGKLEDGTEFDSSLPRNQPFVFWLGTGRVIKGWDQGLLGMCEGEKRKLVIPSELGYGERGWPPKIPGGATLVFEVELLKIER | 947 | 41.68 | 61.3 | 5.6 | 7.5 | 1180 | largest difference between rapamycin and tacrolimus | 7.44 |  |  |  |  |  |  |  |  | 
5 | 1140 | 1010 | 0.97 | FKBP-157: FKBP13 DRD Q72R, T82W, Q84E, A117W, M54A; SEQ ID NO: 107 (protein, Description of sequence: FKBP13-AcGFP-mCherry Fusion; Construct Name: FKBP-157; FKBP13 DRD in Construct : FKBP13 (mutated to match FKBP12 active site Q72R T82W Q84E A117W) (DRD M54A)) HCPIKSRKGDVLHAHYTGKLEDGTEFDSSLPRNQPFVFSLGWGRVIKGWDQGLLGMCEGEKRKLVIPSELGYGERGWPPKIPGGATLVFEVELLKIER | 1320 | 51.33 | 63.5 | 7.92 | 11.2 | 1080 | largest difference between rapamycin and tacrolimus | 6.48 |  |  |  |  |  |  |  |  | 
6 |  |  | 1.22 | FKBP-159: FKBP13 DRD Q72R, Q84E, A117W, M54A G111Y; SEQ ID NO: 109 (protein, Description of sequence: FKBP13-AcGFP-mCherry Fusion; Construct Name: FKBP-159; FKBP13 DRD in Construct : FKBP13 (mutated to match FKBP12 active site Q72R Q84E A117W) (DRD M54A G111Y)) HCPIKSRKGDVLHAHYTGKLEDGTEFDSSLPRNQPFVFSLGTGEVIKGWDQGLLGMCEGEKRKLVIPSELYYGERGWPPKIPGGATLVFEVELLKIER |  | 1.06 |  | 0.81 |  |  |  | 1.31 |  |  |  |  |  |  |  |  | 
7 |  |  | 0.35 | FKBP-154: FKBP13 DRD Q72R, S79W, Q84W, A117W, M54A; SEQ ID NO: 104 (protein, Description of sequence: FKBP13-AcGFP-mCherry Fusion; Construct Name: FKBP-154; FKBP13 DRD in Construct : FKBP13 (mutated to match FKBP12 active site Q72R S79W Q84W A117W) (DRD M54A)) HCPIKSRKGDVLHAHYTGKLEDGTEFDSSLPRNQPFVFSLGTGEVIKGWDQGLLGMCEGEKRKLVIPSELGYGERGWPPKIPGGATLVFEVELLKIER |  | 14 |  | 3.9 |  |  |  | 3.59 |  |  |  |  |  |  |  |  | 
8 |  |  | 0.56 | FKBP-156: FKBP13 DRD Q72R, T82W, Q84W, A117W, M54A; SEQ ID NO: 106 (protein, Description of sequence: FKBP13-AcGFP-mCherry Fusion; Construct Name: FKBP-156; FKBP13 DRD in Construct : FKBP13 (mutated to match FKBP12 active site Q72R T82W Q84W A117W) (DRD M54A)) HCPIKSRKGDVLHAHYTGKLEDGTEFDSSLPRNQPFVFSLGWGWVIKGWDQGLLGMCEGEKRKLVIPSELGYGERGWPPKIPGGATLVFEVELLKIER |  | 18.36 |  | 8.77 |  |  |  | 2.09 |  |  |  |  |  |  |  |  | 
